# In article PMC3463532:
# Columns and labels:
# [1] = molecular target: Dictyostelium discoideum p97, purified recombinant wild-type (D. discoideum) (UniProt P90532); test: native gel or EMSA; blue native PAGE (BN-PAGE) of the affinity purified recombinant protein, Coomassie staining; SDS-PAGE beside it; monomers to hexamer
# [2] = molecular target: Dictyostelium discoideum p97^R155C, purified recombinant (D. discoideum) (UniProt P90532); test: as above
stoichiometry N [1],stoichiometry N [2],Substance
6,,"Dictyostelium discoideum p97, purified recombinant wild-type (from UniProt P90532 1-793) (natural protein)"
,6,"Dictyostelium discoideum p97^R155C, purified recombinant (from UniProt P90532 1-793) (natural protein)"
